From patent US20140322759 come the findings set out here.

Experiment in all cases: EMSA
Background: Mobility shift assays separate free from complexed probe on a gel.

Series [1] concerns the target T1, phi29 DNA polymerase K512E K512E (Bacillus phage phi29) (UniProt P03680).
T1 sequence: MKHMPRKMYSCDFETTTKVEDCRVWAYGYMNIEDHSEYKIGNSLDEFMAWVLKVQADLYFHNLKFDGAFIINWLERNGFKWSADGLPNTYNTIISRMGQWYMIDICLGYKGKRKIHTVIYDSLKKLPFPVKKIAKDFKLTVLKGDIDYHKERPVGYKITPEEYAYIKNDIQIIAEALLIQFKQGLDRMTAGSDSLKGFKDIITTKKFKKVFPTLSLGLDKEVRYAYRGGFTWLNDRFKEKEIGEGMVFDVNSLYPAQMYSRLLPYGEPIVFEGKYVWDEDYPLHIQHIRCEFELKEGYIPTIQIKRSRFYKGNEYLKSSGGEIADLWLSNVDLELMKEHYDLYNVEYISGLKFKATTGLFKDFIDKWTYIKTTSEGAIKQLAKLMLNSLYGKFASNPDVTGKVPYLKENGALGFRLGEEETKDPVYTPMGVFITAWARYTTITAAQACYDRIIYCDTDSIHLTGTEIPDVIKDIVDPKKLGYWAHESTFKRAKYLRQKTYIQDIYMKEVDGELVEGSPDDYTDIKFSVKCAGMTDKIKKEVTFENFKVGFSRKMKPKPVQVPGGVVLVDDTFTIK
Particulars: SD 27.6; unit not given (μM in assay); pH 7.9, 66 mM K-acetate, 30 C.

Series [2] has as its target T2, phi29 DNA polymerase V51A V51A (Bacillus phage phi29) (UniProt P03680).
T2 sequence: T1 sequence with V51A, E512K
The settings on record: SD 10.8; unit not given (μM in assay); pH 7.9, 66 mM K-acetate, 30 C.

For series [3], the target named is T3, phi29 DNA polymerase F526L F526L (Bacillus phage phi29) (UniProt P03680).
T3 sequence: T1 sequence with E512K, F526L
Particulars: SD 24.2; unit not given (μM in assay); pH 7.9, 66 mM K-acetate, 30 C.

Series [4] deals with T4, phi29 DNA polymerase M8R M8R (Bacillus phage phi29) (UniProt P03680).
T4 sequence: T1 sequence with M8R, E512K
The settings on record: SD 2.1; unit not given (μM in assay); pH 7.9, 66 mM K-acetate, 30 C.

Residue numbers refer to the chain shown, from its start.

As usually defined, the Kd is the equilibrium constant for the complex coming apart. A higher Kd goes with a looser complex. On to “GATCACAGTGAGTAC / TCTATTGTACTCACTGTGATC [15-mer/21-mer primer/template]”, for which the Kd in series [1] was 54 µM; in series [2] it was 52 µM; in series [3], 53 µM; in series [4] it was 43 µM.
